In a protein production outcome set (Wang et al. 2014) one finds protein production data, which are given here for 9 sequences.

The data set can be described thus: label from the status in PepcDB records.
In the case of “MQEEFMKKNSIIAGLFVFCITTAGIGYTVYNSVYSDRQKHRINETAKLDSAKAPNELKDGEYTASAEGYEGPITVKVVIKEGKIFSVEVLSHNETPEYYEMAKKILQTIVEKNTFNVDSISGATVTSDAIKVAVYKALVQAGAKTSDVAEGLEKENEELRDKEKAKLLAKQSSAVAGKVGFNRNNLKDGTFIGVGRGYNGLIKVSISIKNGVIYDARVISHSDDYPYFTWASSVLNKVISGSTNIDTVSGATVSSRGILNAVKDALRKASNGNNSLDINSPDETEQNIPRQNRREIEQIKKYFKGLKDGVYFGKSNGYYTNSIEVKVTVKDGKIAKIELTKNDDDESYFDNKKAGILGERIISNQSTNIDTISGATTSSKGFINAVVNALEKAVDSNGSDADKYIYSPKTIIANVGETIGLQKIRDALEKLPEDVQINIKNNADTSSEGKTKIVVELIFKDNSKKIVEIPVLVNSKVDGSYKFLSAEEVKNLDKNVNYPDGVYYGDSYGFVSNKPIPVKVTIKNNKIENVELVKEELNRLKGVTSPGNVDDGGIFQEKFYTIIDRIKNMQKFESLIYKFEVLRDATSKVMEEARGKEQTVEVYRAALDKVIGKHNFGKWGLSIDESHLKGERNIHDRIFSLLKVYVKEELGYDGSDYDAVSGATFTATGTATSIKNALLKAKNFDFYDMRVDDSNFKTSYKEGDKLDLKDLKVTIYKKNNQKITVSYSDFGKYGLKVVDEYNKELKDGLVLNKENLGYNVTDGLRLKVVHEESKSFKFLNTILISKSTTKNFEISGIKIKAKDGSEWYDTKGYNTTDFIQNLTVSKEVAEKLNNKEIEFKIIAKDKKSSEEIEIPLRQAQNKTLIADFVSGEYTLDVIEKYKGVLFNNTFRIKTKVEGKIPKAFLYKETPETLIISKGTEITESKIRSVLKNLPDKTDISVLRGVDVNKVNETVLQKLLIKLKFDDGSEKEIEIDVIVKEKVISMADKYVYKPKDLITIKGKEVELSHLKNHLDDLPEGTKIEIIEKANVSEVNETGTLMKVSLEFTDKSTKDISINVVVKDTAPNKAEEFKILYPEIKNEIVNVVVKDPKYGNMKNFAETVKWGAFSDFAINRDLKLKSRSADISRIEVLKEPDRSKLGDQKGKIRLSFNDGSKLELEISVKIVPYPVYKIFRLTSNKTQYRLEDKFNLNDLKVTLFISNKLENESDWDTTGTPVLNIPYSDFYLFGIKVVDLDSKKEIENNSIISTLIKNKKLSVGAYCENLIQKNNYESGKKLVEIFNIKITNIDEWKESKKNIVEIKDEKNSKKADDSNKTGKVMASKKEIKNVDNLDNTSEKNKTIESENTTKDKVQRKDSDSGGKLSDDSSEKQNLKTNEKED”, the protein production result is “failed”.

With “MQEGQNRKTSSLSILAIAGVEPYQEKPGEEYMNEAQLAHFRRILEAWRNQLRDEVDRTVTHMQDEAANFPDPVDRAAQEEEFSLELRNRDRERKLIKKIEKTLKKVEDEDFGYCESCGVEIGIRRLEARPTADLCIDCKTLAEIREKQMAG”, the protein production entry is reported as “not failed”.

Turning to “MQEIISFIVETASAWGYLGIIILMTLESCFIPFPSEVVMIPAGYLAHKGELDITLCILSGTLGSVLGALINYYICFFWGKNFVLKWGKYFGINEVKFAKFEEFFNKHGEFSTFTCRLLPGIRQYISMPAGLVKMKLVNFILFTALGSAIWVAILVFLGYYIGQNEELIKTYLTQILIIIIVFVILASLIYISKSKSLLKRLKFYLLRFVWRF”, the protein production entry is “failed”.

In the case of “MQEIMYLAPELVLVATGLVILLTGVFLSPQSKNILGYLATLGTLAAIFLTVKSFGLLTMEGFSVQYTIFSETLSIDALSQFFKLVFLAVALIVSIASIKYTENSDHTEEFYTLVLFATFGMMIVASANDLILLFCAFELASLATFALAGFEKQNARSLEGAMKYFVIGSVSAALMLFGLSFVYGATGTTSIPLIAQNPGLLTGNPIGIVAIVLLTAGFGFKMALVPFHMWAPDTYQGSPSVVSALLAAGSKKMGFVAAFRVFIIALAALQPDWQFMFTLLAVVTMTFGNVVAVAQTSVKRMLAYSSLAQAGYIAMAFAVMTPVALAGGIMYTLAHAFMKAGAFIAAAAVVWMITSEKTGNLDIPDHLDSFRGLGKRMPLAALCMTVFVFALAGIPPTAGFMAKFVLFSSTIQAGMTWLAVIAILNSALSLFYYARLVKYMYFMPPEGKTEKVSIPFPYAAALLVAVAGVLVMGLWPEPFVELAMKAAMVLVPF”, the protein production entry is “failed”.

In the case of “MQENKKIDENIDDFLKIVVDLNHIQIEVRDEVQAILLLSSLPSRYDGLVETMKYSNSREKLRLNDVMVAARDKEREMSQNNRLIAEGHYARRRPVGKNNNQGNKGKNRSWSKSADGKRVCWICGKEKHFNEQCYKWLERNKPK”, the protein production result was “failed”.

For the sequence “MQESWVEGVEDIRMLGSSLRNDSAAAGRACARTRAGPPAESRKKKVQAERRRREGVANAPTRALRFLRARRAWSPRLAAPGPLTLVAEGEEGRNRVPAAKHPCLRTMSPEPAPPEPQGVRSSLEEPSAEPLGQGSAAFLAGDYEVAAELFRSLLAGLAQPERGLCLQLGEALARAGRLPEAIGAFRGAALLGPLQPGELSELASGLARALGLREKRPPVAARPGGCASGTSGPVAPRDLLGCPRCGRLLYKPVTLSSGLTVCKRCVEQVPVRAQARRVNVVLSGLLERCFPAECRLRRLACQARGLQRQQQPEAALLRCQQALDMAPDDSSLLLLRAELYLTMKNYEQALQDADTVCQREPLLTKGHHIKAQILSGLGRNKEVLKEFIYCLALNPECNSAKKETQKVICEVFFSASENEQQNSAPSTQTGPKALCDGQMSPQNPLEEAGGHANADSPKTPSEKPDVPENTNSSVLYFILGLHCEEDKKALEGVIPAAPSGTLKRQLPSDAEDKELDVNTPEKIPKKDADSSPQRNANSLEEEPEFTIDATDFECALCMRLLFEPVTTPCGHTFCLKCLERCLDHAPHCPLCKDKLSELLATRNFNVTVLTEELIFRYLPDELSDRKRVYDEEMSELSHLTRDVPIFVCAMAFPTVPCPLHVFEPRYRLMIRRCMETGTKRFGMCLSAENAGISEYGCMLEIKDVRTFPDGSSVVDAVGISRFRVLSHRHRDGYNTADIEYLEDEKVEGAEFEELTALHESVYQQSVSWFASLQDHMKKQILSHFGSMPDREPEPQSNSSGPAWSWWILAVLPLERKAQLAILGMGSLKERLLAIRRILVIITRKLNSRQEMANNAQRDN”, the protein production entry was “failed”.

For “MQETMLDLRTVYECNRCLGCKTLHPQVGIINLENPSLEEDAVKFEFYAVLLIEDCPGGCCCCGRKYYDYSNATMVFLTPGEIFRMSKENTLPDKGYLLAFHPDLLFRTSLKNHIKNYTFFHYRKEEALHLSRRETEKVTCCLSNIEDELHHPIDTHSSIILSRHIELLLDYCTRYYERQFITRENKNKALLENMERLFVEYIASGRLQGGKLPTSGYMAGELDLSVAYFDDLLKFETGKTLEEYLQLKRLDIARHMLLQDGHTPAAVARKLGYPNVQCFSVLFKKITGVAPSDYRLSQN”, the protein production entry is listed as “not failed”.

As to “MQFEVLKRFFPKESLKNCKGALWVHTASIGEFNTFLPILKELKREHRILLTYFSPRAREYLKTKSDFYDCLHPLPLDNPFSVKRFEELSKPKALIVVEREFWPSLIIFTKVPKILVNAYAKGSLIEKILSKKFDLIIMRTQEDVEKFKTFGAKRVFSCGNLKFICQKGKGIKLKGEFIVAGSIHTGEVEIILKAFKEIKKTYSSLKLILVPRHIENAKIFEKKARDFGFKTSFFENLEGDVILVDRFGILKELYPVGKIAIVGGTFVNIGGHNLLEPTCWGIPVIYGPYTHKVNDLKEFLEKEGAGFEVKNETELVTKLTELLSVKKEIKVEEKSREIKGCYLEKLREFLRGL”, the protein production entry was “failed”.

In the case of “MQFQIGDMVARKSYQMDVLFRIIGIEQTSKGNSIAILHGDEVRLIADSDFSDLVAVKKDEQMMRKKKDESRMNESLELLRQDYKLLREKQEYYATSQYQHQEHYFHMPGKVLHLDGDEAYLKKCLNVYKKIGVPVYGIHCHEKKMSASIEVLLDKYRPDILVITGHDAYSKQKGGIDDLNAYRHSKHFVETVQTARKKIPHLDQLVIFAGACQSHFESLIRAGANFASSPSRVNIHALDPVYIVAKISFTPFMERINVWEVLRNTLTREKGLGGIETRGVLRIGMPYKSN”, the protein production entry is “not failed”.
